# Changes are numbered by the printed parent chain.
# B1: H237-MB653/MRAL-k0 (antibody, mouse IgG1, kappa)
# heavy: QVQLQESGPGLVKPSETLSLTCAVSGHSISHDHAWSWVRQPPGEGLEWIGFISYSGITNYNPSLQGRVTISRDNSKNTLYLQMNSLRAEDTAVYYCARSLARTTAMDYWGEGTLVTVSSAKTTPPSVYPLAPGSAAQTNSMVTLGCLVKGYFPEPVTVTWNSGSLSSGVHTFPAVLQSDLYTLSSSVTVPSSTWPSETVTCNVAHPASSTKVDKKIVPRDCGCKPCICETYEVEFVFIFPPKPKDVLTITLTPKVTCVVVDISKDDPEVQFSWFVDDVEVHTAQTQPREEQFNSTFRSVSELPIMHQDWLNGKEFKCRVNSAAFPAPIEKTISKTKGRPKAPQVYTIPPPKEQMAKDKVSLTCMITDFFPEDITVEWQWNGQPAENYKNTQPIMDTDGSYFVYSKLNVQKSNWEAGNTFTCSVLHEGLHNHHTEKSLSHSPGK
# light: not shown
# notes: copies: 2 + 2
# B2: H237-MB719/MRAL-k0 (antibody, mouse IgG1, kappa)
# heavy: B1 heavy with T230P, Y231N, F235Q
# light: not shown
# notes: copies: 2 + 2
# B3: H237-MB715/MRAL-k0 (antibody, mouse IgG1, kappa)
# heavy: B1 heavy with T230P, Y231N, F235V
# light: not shown
# notes: copies: 2 + 2
# B4: H237-MB487/MRAL-k0 (antibody, mouse IgG1, kappa)
# heavy: B1 heavy with E229I, T230P, Y231A, F235S
# light: not shown
# notes: copies: 2 + 2
# B5: H237-MB655/MRAL-k0 (antibody, mouse IgG1, kappa)
# heavy: B1 heavy with T230P, Y231A
# light: not shown
# notes: copies: 2 + 2
# B6: H237-MB705/MRAL-k0 (antibody, mouse IgG1, kappa)
# heavy: B1 heavy with T230P, Y231A, F235G
# light: not shown
# notes: copies: 2 + 2
# B7: H237-MB654/MRAL-k0 (antibody, mouse IgG1, kappa)
# heavy: B1 heavy with T230V
# light: not shown
# notes: copies: 2 + 2
# B8: H237-MB709/MRAL-k0 (antibody, mouse IgG1, kappa)
# heavy: B1 heavy with T230P, Y231A, F235T
# light: not shown
# notes: copies: 2 + 2
# B9: H237-MB716/MRAL-k0 (antibody, mouse IgG1, kappa)
# heavy: B1 heavy with T230P, Y231N, F235I
# light: not shown
# notes: copies: 2 + 2
# B10: H237-MB488/MRAL-k0 (antibody, mouse IgG1, kappa)
# heavy: B1 heavy with T230P, Y231N, F235S
# light: not shown
# notes: copies: 2 + 2
# B11: H237-MB793/MRAL-k0 (antibody, mouse IgG1, kappa)
# heavy: B1 heavy with E229Q, T230P, Y231N, F235I
# light: not shown
# notes: copies: 2 + 2
# B12: H237-MB470/MRAL-k0 (antibody, mouse IgG1, kappa)
# heavy: B1 heavy with T230N, F235E
# light: not shown
# notes: copies: 2 + 2
# B13: H237-MB471/MRAL-k0 (antibody, mouse IgG1, kappa)
# heavy: B1 heavy with F235E
# light: not shown
# notes: copies: 2 + 2
# B14: H237-MB472/MRAL-k0 (antibody, mouse IgG1, kappa)
# heavy: B1 heavy with T230V, F235E
# light: not shown
# notes: copies: 2 + 2
# B15: H237-MB485/MRAL-k0 (antibody, mouse IgG1, kappa)
# heavy: B1 heavy with T230V, F235S
# light: not shown
# notes: copies: 2 + 2
# B16: H237-MB657/MRAL-k0 (antibody, mouse IgG1, kappa)
# heavy: B1 heavy with T230P, Y231N
# light: not shown
# notes: copies: 2 + 2
# B17: H237-MB658/MRAL-k0 (antibody, mouse IgG1, kappa)
# heavy: B1 heavy with E229Q, T230P, Y231N
# light: not shown
# notes: copies: 2 + 2
# B18: H237-MB708/MRAL-k0 (antibody, mouse IgG1, kappa)
# heavy: B1 heavy with T230P, Y231A, F235P
# light: not shown
# notes: copies: 2 + 2
# B19: H237-MB489/MRAL-k0 (antibody, mouse IgG1, kappa)
# heavy: B1 heavy with E229Q, T230P, Y231N, F235S
# light: not shown
# notes: copies: 2 + 2
# B20: H237-MB718/MRAL-k0 (antibody, mouse IgG1, kappa)
# heavy: B1 heavy with T230P, Y231N, F235T
# light: not shown
# notes: copies: 2 + 2
# B21: H237-MB710/MRAL-k0 (antibody)
# heavy: B1 heavy with T230P, Y231A, F235Q
# light: not shown
# notes: copies: 2 + 2
# B22: H237-MB704/MRAL-k0 (antibody, mouse IgG1, kappa)
# heavy: B1 heavy with T230P, Y231A, F235A
# light: not shown
# notes: copies: 2 + 2
# B23: H237-MB714/MRAL-k0 (antibody, mouse IgG1, kappa)
# heavy: B1 heavy with T230P, Y231N, F235G
# light: not shown
# notes: copies: 2 + 2
# B24: H237-MB482/MRAL-k0 (antibody, mouse IgG1, kappa)
# heavy: B1 heavy with T230D, F235S
# light: not shown
# notes: copies: 2 + 2
# B25: H237-MB483/MRAL-k0 (antibody, mouse IgG1, kappa)
# heavy: B1 heavy with T230N, F235S
# light: not shown
# notes: copies: 2 + 2
# B26: H237-MB468/MRAL-k0 (antibody, mouse IgG1, kappa)
# heavy: B1 heavy with T230A, F235E
# light: not shown
# notes: copies: 2 + 2
# B27: H237-MB713/MRAL-k0 (antibody, mouse IgG1, kappa)
# heavy: B1 heavy with T230P, Y231N, F235A
# light: not shown
# notes: copies: 2 + 2
# B28: H237-MB717/MRAL-k0 (antibody, mouse IgG1, kappa)
# heavy: B1 heavy with T230P, Y231N, F235P
# light: not shown
# notes: copies: 2 + 2
# B29: H237-MB481/MRAL-k0 (antibody, mouse IgG1, kappa)
# heavy: B1 heavy with T230A, F235S
# light: not shown
# notes: copies: 2 + 2
# B30: H237-MB484/MRAL-k0 (antibody, mouse IgG1, kappa)
# heavy: B1 heavy with F235S
# light: not shown
# notes: copies: 2 + 2
# B31: H237-MB469/MRAL-k0 (antibody, mouse IgG1, kappa)
# heavy: B1 heavy with T230D, F235E
# light: not shown
# notes: copies: 2 + 2
# Assays:
# [1] = target: T1, mouse FcγRIII extracellular domain, C-terminally His-tagged (mouse, UniProt P08508 31-215); assay: SPR Biacore T200, KD ratio
# T1 construct: the whole entry is named; also called mFcγRIII; mFcgRIII
# T1 chain: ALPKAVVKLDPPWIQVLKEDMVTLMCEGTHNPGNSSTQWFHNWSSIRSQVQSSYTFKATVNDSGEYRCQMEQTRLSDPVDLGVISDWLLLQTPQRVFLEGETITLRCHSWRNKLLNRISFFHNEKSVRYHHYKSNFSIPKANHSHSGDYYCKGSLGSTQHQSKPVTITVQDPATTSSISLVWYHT
# Procedure: (§1) Each altered antibody was analyzed for its interaction with each Fcγ receptor prepared above using Biacore T100 (GE Healthcare Japan Corp.), Biacore T200 (GE Healthcare Japan Corp.), Biacore A100, or Biacore 4000. The running buffer used was HBS-EP+ (GE Healthcare Japan Corp.). The assay temperature was set to 25° C. The sensor chips used were chips prepared by immobilizing Protein L (ACTIGEN or BioVision) onto Series S Sensor Chip CM5 (GE Healthcare Japan Corp.) or Series S Sensor Chip CM4 (GE Healthcare Japan Corp.) by the amine coupling method.
# (§2) In order to calculate the KD value of each altered antibody for FcγR, kinetic analysis was conducted according to the following method: first, the antibody of interest was captured onto any of these chips and allowed to interact with mFcγR diluted with a running buffer. For the obtained sensorgram, the assay results were globally fit into the 1:1 Langmuir binding model using Biacore Evaluation Software to calculate an association rate constant ka (L/mol/s) and a dissociation rate constant kd (1/s). From these values, the dissociation constant KD (mol/L) was calculated.
# [2] = target: T2, mouse FcγRII extracellular domain, C-terminally His-tagged (mouse, UniProt P08101 30-210); assay: SPR Biacore T200, KD ratio
# T2 construct: the whole entry is named; also called mFcγRII; mFcgRII
# T2 sequence: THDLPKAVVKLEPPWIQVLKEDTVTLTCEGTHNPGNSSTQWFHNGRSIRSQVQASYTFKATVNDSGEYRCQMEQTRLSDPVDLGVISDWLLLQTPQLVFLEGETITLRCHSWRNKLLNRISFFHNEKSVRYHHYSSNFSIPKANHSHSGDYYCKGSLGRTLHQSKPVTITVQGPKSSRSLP
# Procedure: as §1, §2
# [3] = target: T3, mouse FcγRIII extracellular domain with C-terminal His tag (mouse, UniProt P08508 31-215); assay: SPR Biacore T200
# T3 construct: Made on the basis of NCBI NP-034318.2; also called mFcγRIII; mFcgRIII
# T3 chain: T1 chain
# Procedure: as §1, §2
# [4] = target: T4, mouse FcγRII extracellular domain with C-terminal His tag (mouse, UniProt P08101 30-210); assay: SPR Biacore T200
# T4 construct: Made on the basis of NCBI NP-034317.1; also called mFcγRII; mFcgRII
# T4 sequence: T2 sequence
# Procedure: as §1, §2
Binder,relative mFcγRIII-binding activity (mIgG1 = 1) [1],relative mFcγRII-binding activity (mIgG1 = 1) [2],relative mFcγRIII-binding activity (mIgG1 = 1) [3],relative mFcγRII-binding activity (mIgG1 = 1) [4]
B1,0.1 fold,0.41 fold,–,–
B2,2.31 fold,70.4 fold,–,–
B3,0.02 fold,0.89 fold,–,–
B4,–,–,0.5,6.8
B5,0.06 fold,0.4 fold,–,–
B6,0.75 fold,8.71 fold,–,–
B7,0.07 fold,0.27 fold,–,–
B8,0.04 fold,0.61 fold,–,–
B9,0.05 fold,3.98 fold,–,–
B10,–,–,1.8,28.7
B11,0.05 fold,1.17 fold,–,–
B12,–,–,4.9,63.8
B13,–,–,4.8,91.4
B14,–,–,2.5,39.4
B15,–,–,0.5,5
B16,0.08 fold,1.77 fold,–,–

Binder,relative mFcγRIII-binding activity (mIgG1 = 1) [1],relative mFcγRII-binding activity (mIgG1 = 1) [2],relative mFcγRIII-binding activity (mIgG1 = 1) [3],relative mFcγRII-binding activity (mIgG1 = 1) [4]
B17,0.06 fold,0.51 fold,–,–
B18,0.03 fold,0.28 fold,–,–
B19,–,–,1.1,6.9
B20,0.05 fold,0.85 fold,–,–
B21,1.22 fold,50.8 fold,–,–
B22,0.87 fold,14.1 fold,–,–
B23,1.61 fold,14.2 fold,–,–
B24,–,–,0.7,14.1
B25,–,–,0.9,9.4
B26,–,–,2.8,63.1
B27,2.5 fold,23.5 fold,–,–
B28,0.03 fold,0.41 fold,–,–
B29,–,–,0.6,8.5
B30,–,–,1.1,14.9
B31,–,–,2.8,57.1

# Reference: US20150203577A1 (Chugai, published 2015)
